Measurements published in US20040259816A1.

Target: PKC δ (rat), P09215
Test: cell-based or functional assay

Sequence of PKC δ (rat), P09215 (P09215 whole entry, stated change not applied): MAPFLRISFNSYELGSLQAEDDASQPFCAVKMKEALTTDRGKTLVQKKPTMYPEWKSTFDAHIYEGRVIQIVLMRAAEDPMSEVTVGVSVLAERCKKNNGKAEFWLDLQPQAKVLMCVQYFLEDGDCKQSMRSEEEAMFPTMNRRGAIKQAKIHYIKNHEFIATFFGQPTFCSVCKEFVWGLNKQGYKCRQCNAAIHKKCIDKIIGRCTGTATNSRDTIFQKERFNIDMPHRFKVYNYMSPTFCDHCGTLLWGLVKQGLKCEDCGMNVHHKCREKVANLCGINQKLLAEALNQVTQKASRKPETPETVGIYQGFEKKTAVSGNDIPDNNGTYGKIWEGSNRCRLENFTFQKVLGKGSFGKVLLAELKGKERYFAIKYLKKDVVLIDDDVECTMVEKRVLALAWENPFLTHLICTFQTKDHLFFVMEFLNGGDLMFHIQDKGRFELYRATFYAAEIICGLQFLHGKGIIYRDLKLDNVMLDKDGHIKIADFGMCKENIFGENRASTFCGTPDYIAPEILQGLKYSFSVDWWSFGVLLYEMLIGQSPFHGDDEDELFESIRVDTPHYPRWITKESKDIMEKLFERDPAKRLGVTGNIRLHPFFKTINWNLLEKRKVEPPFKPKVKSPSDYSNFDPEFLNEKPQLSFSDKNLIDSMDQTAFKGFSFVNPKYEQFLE

inhibition of CCK-8 induced NF-κB activation (EMSA band intensity, rat pancreatic acini, 10 µM peptide): 76%
inhibition of TNF-α induced NF-κB activation (EMSA band intensity, rat pancreatic acini, 10 µM peptide): 57%
Binder: SFNSYELGSLRQIKIWFQNRRMKWKK [PKC δ translocation inhibitor δV1-1 conjugated to Drosophila antennapedia peptide]
